Substrate in this series: C[N+](C)(C)CCOC(=O)c1ccc(O)c(O)c1
Kind of series: Km of the substrate for cholinesterase (UV method, absorbance decrease at 340 nm). The note with it: other: 50 mM TRIS-maleate buffer (pH 8.20); compound as substrate of Ch-E; pH 8.2; 37.0 °C. The series is classed as biochemical. The text has this:
Fig. 1 represents UV spectra of 3,4-dihydroxybenzoylcholine iodide (hereinafter referred to briefly as DHBCI) and 3,4-dihydroxybenzoic acid. When DHBCI is hydrolyzed by the action of Ch-E, there are formed choline and 3,4-dihydroxybenzoic acid. […] Therefore, when DHBCI, a novel compound according to the present invention, is used as substrate in the assay of enzymatic activity of Ch-E and the reaction is traced through the absorbance at a wavelength of 340-360 nm, it is possible to follow precisely the decrease in substrate DHBCI. In the previously mentioned method of W. Kalow, since the measurement is done at a shorter wavelength of 240 nm, the initial absorption is interfered with by the blood constituents, whereas at a wavelength of 340-360 nm, the interference is very little and the conditions of reaction can be set up more easily. […]
The assay was performed by adjusting the substrate concentration to 0.25 mM with a 50 mM TRIS-maleate buffer (pH 8.20), preheating for about 5 minutes 2.0 mt of-the adjusted solution to 37°C, admixing the preheated solution with 200 µℓ of a serum, and immediately measuring the absorbance decrease at 340 nm of the mixture at 37°C. […] The activity of Ch-E was calculated from the following equation: [formula] • ^* ΔO.D.: Absorbance change per minute at a wavelength of 340 nm. • ^** Molar absorbance at 340 nm: 2960

B1: cholinesterase (enzyme code number of 3.1.1.8; referred to briefly as Ch-E) (Homo sapiens) (protein)
chain: EDDIIIATKNGKVRGMNLTVFGGTVTAFLGIPYAQPPLGRLRFKKPQSLTKWSDIWNATKYANSCCQNIDQSFPGFHGSEMWNPNTDLSEDCLYLNVWIPAPKPKNATVLIWIYGGGFQTGTSSLHVYDGKFLARVERVIVVSMNYRVGALGFLALPGNPEAPGNMGLFDQQLALQWVQKNIAAFGGNPKSVTLFGESAGAASVSLHLLSPGSHSLFTRAILQSGSFNAPWAVTSLYEARNRTLNLAKLTGCSRENETEIIKCLRNKDPQEILLNEAFVVPYGTPLSVNFGPTVDGDFLTDMPDILLELGQFKKTQILVGVNKDEGTAFLVYGAPGFSKDNNSIITRKEFQEGLKIFFPGVSEFGKESILFHYTDWVDDQRPENYREALGDVVGDYNFICPALEFTKKFSEWGNNAFFYYFEHRSSKLPWPEWMGVMHGYEIEFVFGLPLERRDNYTKAEEILSRSIVKRWANFAKYGNPNETQNNSTSWPVFKSTEQKYLTLNTESTRIMTKLRAQQCRFWTSFFPKVLEMTGNIDEAEWEWKAGFHRWNNYMMDWKNQFNDYTSKKESCVGL
notes: admixing the preheated solution with 200 µℓ of a serum; tissue Nissui Seiyaku Co. consera I; host or cells: serum (commercial control serum)
For B1, the Km (in general, the concentration of substrate that gives half-maximal velocity) turned out to be 26 µM.

The record behind these values is patent EP0155825A2, “Novel choline derivatives” (NITTO BOSEKI CO., LTD., priority 1984, dated 1985).
